Experimental data reported in US20250388703A1.

Tests used:
[1] = target: Human CD28-his (ACROBiosystems CD8-H52H3) (human) (UniProt P10747); assay: column 'CD28 affinity (nM)'; assay not named on the sheet; BLI on human CD28-His per Example 1
[2] = target: Human CD3 E/D dimer (heterodimeric construct of human CD3 epsilon and CD3 delta domains, ACROBiosystems CDD-H52Wa) (human) (UniProt P07766); assay: column 'CD3 affinity (nM)'; assay not named on the sheet; BLI on human CD3 epsilon/delta-His per Example 1
Chain of Human CD3 E/D dimer (heterodimeric construct of human CD3 epsilon and CD3 delta domains, ACROBiosystems CDD-H52Wa) (human) (P07766 23-126 limits assumed, stated change not applied, chain 1 of 2): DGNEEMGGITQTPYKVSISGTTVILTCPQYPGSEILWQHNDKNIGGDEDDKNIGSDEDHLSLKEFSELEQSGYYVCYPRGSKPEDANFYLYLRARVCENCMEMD
Chain of Human CD3 E/D dimer (heterodimeric construct of human CD3 epsilon and CD3 delta domains, ACROBiosystems CDD-H52Wa) (human) (P04234 22-105 limits assumed, stated change not applied, chain 2 of 2, further chain): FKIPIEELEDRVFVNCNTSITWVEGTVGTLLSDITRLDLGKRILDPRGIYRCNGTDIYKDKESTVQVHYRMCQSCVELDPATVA

[3] = target: DLL3 (human) (UniProt Q9NYJ7); assay: not named on the sheet; Example 1 describes flow cytometry on CHO-K1 cells over-expressing DLL3
Chain of DLL3 (human) (Q9NYJ7 27-492 limits assumed): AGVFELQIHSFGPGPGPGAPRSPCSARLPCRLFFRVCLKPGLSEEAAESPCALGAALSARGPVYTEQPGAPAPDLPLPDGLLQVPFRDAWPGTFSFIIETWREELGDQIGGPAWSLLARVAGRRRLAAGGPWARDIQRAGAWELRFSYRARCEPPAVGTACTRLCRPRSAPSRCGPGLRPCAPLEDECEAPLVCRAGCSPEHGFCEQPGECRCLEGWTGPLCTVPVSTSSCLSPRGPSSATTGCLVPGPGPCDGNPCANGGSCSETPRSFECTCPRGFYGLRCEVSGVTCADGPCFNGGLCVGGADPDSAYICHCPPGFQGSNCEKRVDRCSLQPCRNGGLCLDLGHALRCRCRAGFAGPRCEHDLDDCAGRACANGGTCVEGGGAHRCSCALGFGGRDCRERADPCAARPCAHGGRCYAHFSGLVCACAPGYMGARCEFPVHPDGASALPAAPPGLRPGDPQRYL

[4] = target: Human CD3 E/D dimer (heterodimeric construct of human CD3 epsilon and CD3 delta domains, ACROBiosystems CDD-H52Wa) (human) (UniProt P07766); assay: BLI, CD3E/D-His on anti-His probes, 1:1 fit

Kd [1] [nM] | Kd [2] [nM] | DLL3 affinity [3] [nM] | Fold reduction in CD3 affinity compared to Tarlatamab [4] [fold] | Kd [4] [nM] | Substance
4.32 | 22.9 |  |  |  | 328_BM (SAR443216)
 | 3 | 0.2 | 1 | 2 | AMG757 (Tarlatamab, BM) (bispecific antibody)
